Consider two molecules from article PMC12285911 (Nature Structural & Molecular Biology, 2025).

What all share (conditions): both partners purified
Assay [1] has as its target T1, ^FAMFAT10 (GG–FAT10 N-terminally labeled with fluorescein amidite by sortase) (human, 5-FAM on the N terminus (5-FAM conjugated to the N terminus of the peptide …, attached by sortase)).
T1 construct: GG added to the N terminus of FAT10 for sortase labeling (scar left after Smt3 cleavage); also called GG–FAT10 (labeled); source: E. coli BL21*, purified; sortase-labeled, enriched on Ni-NTA, gel filtration; not shown: His, N-terminal, cleaved; Smt3, N-terminal, cleaved
T1 chain: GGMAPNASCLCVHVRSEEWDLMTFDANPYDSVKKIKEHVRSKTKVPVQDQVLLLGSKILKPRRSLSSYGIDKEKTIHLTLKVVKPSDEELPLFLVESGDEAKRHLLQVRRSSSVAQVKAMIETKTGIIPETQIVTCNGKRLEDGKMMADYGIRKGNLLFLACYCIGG
Put plainly: fluorescence polarisation; kinetics: ^FAMFAT10 (20 nM) mixed with NUB1 (250–4,000 nM), polarisation over time, single exponentials, kobs against NUB1 concentration, kon by linear regression; 30 °C. On the technique in general: Polarisation of emitted light reports the rotation of a fluorescent probe.

Assay [2] has as its target T2, FAT10 (human leukocyte antigen-F-adjacent transcript 10), wild type, full length, unlabeled (human).
T2 construct: also called wild-type FAT10; source: E. coli BL21*, purified (Ni-NTA, His–ULP1 cleavage, HiTrap SP, gel filtration); not shown: His, N-terminal, cleaved; Smt3, N-terminal, cleaved
T2 chain: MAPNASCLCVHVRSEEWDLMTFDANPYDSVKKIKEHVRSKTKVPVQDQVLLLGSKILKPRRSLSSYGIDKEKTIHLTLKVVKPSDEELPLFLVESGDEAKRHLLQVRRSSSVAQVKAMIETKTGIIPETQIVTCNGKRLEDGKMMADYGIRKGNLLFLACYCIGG
In words: SEC; NUB1 (50 µM) incubated with FAT10 (75 µM) for 30 min on ice, Superdex 200 Increase 10/300; the single complex peak was pooled and run on SEC–MALS (60 mM HEPES pH 7.4, 50 mM NaCl, 50 mM KCl, 5% glycerol, 10 mM MgCl2, 0.5 mM TCEP). (In gel filtration, larger molecules generally elute earlier.)

In assay [3] the target is T3, Rpn1 (proteasomal receptor subunit of the 19S regulatory particle) (human (endogenous in HEK293), UniProt Q13200 1-908).
T3 construct: Rpn1, subunit of the human 26S proteasome; stood in the experiment as a subunit of the whole hs26S proteasome; also called proteasomal Rpn1 subunit; source: endogenous, within the hs26S proteasome purified from HEK293 cells
Put plainly: cryo-EM structure; hs26S proteasome mixed with preincubated (20 min) FAT10–Eos + NUB1 complex in 20 mM HEPES pH 7.4, 25 mM NaCl, 25 mM KCl, 5 mM MgCl2, 2 mM ATP, for 30 s or 60 s before plunge-freezing; nonprocessing and processing states.

The target in assay [4] is T1, ^FAMFAT10 (GG–FAT10 N-terminally …). Put plainly: fluorescence polarisation; titration: ^FAMFAT10 (100 nM) incubated with varying NUB1 concentrations on ice (45 min by the legends, 30 min by the methods), polarisation read in a 384-well plate preheated to 30 °C; the Kd is called approximate (some aggregation at higher NUB1 concentrations).

T3 sequence (Q13200 whole entry): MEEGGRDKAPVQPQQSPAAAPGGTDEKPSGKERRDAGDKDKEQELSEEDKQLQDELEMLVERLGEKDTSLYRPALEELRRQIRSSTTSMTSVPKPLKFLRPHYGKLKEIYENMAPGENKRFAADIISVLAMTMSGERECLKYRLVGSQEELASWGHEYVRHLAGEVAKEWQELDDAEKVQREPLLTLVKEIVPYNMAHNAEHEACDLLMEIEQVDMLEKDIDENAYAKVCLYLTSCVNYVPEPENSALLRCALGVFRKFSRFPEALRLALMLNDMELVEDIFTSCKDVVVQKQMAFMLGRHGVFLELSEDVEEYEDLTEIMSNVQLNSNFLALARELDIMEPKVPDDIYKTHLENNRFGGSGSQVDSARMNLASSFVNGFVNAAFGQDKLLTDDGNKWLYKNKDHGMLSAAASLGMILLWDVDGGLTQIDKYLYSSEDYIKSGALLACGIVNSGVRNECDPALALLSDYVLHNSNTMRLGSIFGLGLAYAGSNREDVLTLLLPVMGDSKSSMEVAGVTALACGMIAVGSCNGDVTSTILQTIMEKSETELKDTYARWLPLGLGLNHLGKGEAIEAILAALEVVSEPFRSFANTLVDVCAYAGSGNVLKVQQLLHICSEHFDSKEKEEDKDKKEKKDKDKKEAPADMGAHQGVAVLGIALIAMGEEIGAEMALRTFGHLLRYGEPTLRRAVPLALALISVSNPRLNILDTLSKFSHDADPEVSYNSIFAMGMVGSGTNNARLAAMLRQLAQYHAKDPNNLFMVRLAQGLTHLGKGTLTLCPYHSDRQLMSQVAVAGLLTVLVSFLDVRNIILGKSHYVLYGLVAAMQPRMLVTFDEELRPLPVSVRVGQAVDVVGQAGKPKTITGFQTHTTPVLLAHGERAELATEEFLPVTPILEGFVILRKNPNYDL

B1: NUB1 (NEDD8 ultimate buster 1), wild type, full length (natural protein)
chain: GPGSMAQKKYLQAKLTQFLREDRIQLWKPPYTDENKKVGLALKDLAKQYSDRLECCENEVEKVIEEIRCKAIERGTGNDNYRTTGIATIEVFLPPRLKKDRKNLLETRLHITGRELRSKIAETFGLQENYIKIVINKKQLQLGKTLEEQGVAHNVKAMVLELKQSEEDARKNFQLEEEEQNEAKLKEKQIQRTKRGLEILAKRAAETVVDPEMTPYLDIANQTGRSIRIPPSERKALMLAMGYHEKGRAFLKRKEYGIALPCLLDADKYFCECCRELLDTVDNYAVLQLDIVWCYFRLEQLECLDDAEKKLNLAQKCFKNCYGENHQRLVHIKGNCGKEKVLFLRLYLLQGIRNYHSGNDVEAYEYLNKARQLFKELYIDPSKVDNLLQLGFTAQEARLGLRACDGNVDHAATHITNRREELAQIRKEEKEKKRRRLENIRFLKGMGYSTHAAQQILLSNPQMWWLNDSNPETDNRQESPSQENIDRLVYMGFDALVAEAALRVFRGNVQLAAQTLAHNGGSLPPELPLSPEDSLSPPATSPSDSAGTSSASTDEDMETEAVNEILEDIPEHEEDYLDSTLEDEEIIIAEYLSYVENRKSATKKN
notes: overhang left at the N terminus after removal of GST by precision (3C) protease; the shorter isoform, not NUB1L; codon-optimised synthetic gene in pGEX-6P-1; also called wild-type NUB1; source: E. coli BL21*, purified (GSH resin, GST–3C protease cleavage, gel filtration); not shown: GST, N-terminal, cleaved
With B1, the kon in assay [1] came to 1600 ± 3000 M⁻¹ s⁻¹. Also, the “stoichiometry N” value in assay [2] is 1. For the same molecule, the binding result in assay [3] was “binds”. The Kd in assay [4] was found to be 176 ± 6.8 nM.

B2: NUB1^Δ1–175 (domain or fragment)
chain: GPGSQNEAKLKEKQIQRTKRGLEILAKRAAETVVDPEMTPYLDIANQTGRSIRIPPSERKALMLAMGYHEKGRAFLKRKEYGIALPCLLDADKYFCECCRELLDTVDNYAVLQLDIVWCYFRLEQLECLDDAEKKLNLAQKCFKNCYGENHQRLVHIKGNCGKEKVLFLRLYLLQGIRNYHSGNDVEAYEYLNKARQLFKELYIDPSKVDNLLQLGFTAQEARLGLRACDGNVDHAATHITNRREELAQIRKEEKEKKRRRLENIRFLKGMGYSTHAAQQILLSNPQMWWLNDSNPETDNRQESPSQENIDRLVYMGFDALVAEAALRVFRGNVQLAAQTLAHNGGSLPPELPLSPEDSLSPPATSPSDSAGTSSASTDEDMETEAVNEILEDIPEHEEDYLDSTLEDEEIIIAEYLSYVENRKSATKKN
notes: overhang left at the N terminus after removal of GST by precision (3C) protease; also called linker-trap domain; source: E. coli BL21*, purified (GSH resin, GST–3C protease cleavage, gel filtration); not shown: GST, N-terminal, cleaved
In the case of B2, the binding result in assay [4] is on record as “binds”.

The kon is the second-order rate constant of association. A higher kon goes with faster complex formation. The stoichiometry N is the number of molecules, sites or subunits per partner or assembly. The Kd is the constant that tells how readily two partners part at equilibrium. Higher therefore signals lower affinity.
